Measurements taken from paper PMC6441041.

Columns and labels:
[1] = target: SH1 membrane-associated protein VP12 (haloarchaeal virus SH1); experiment: cryo-EM structure; purified SH1 virions with and without spikes, data merged; icosahedral and block-based/localised reconstruction of the capsid, 3.8 Å; 20 mM Tris-HCl pH 7.2, 1 M NaCl, 10 mM MnCl2
[2] = target: SH1 penton protein VP9 (haloarchaeal virus SH1); experiment: cryo-EM structure; asymmetric (C1) localised reconstruction of the whole 5-fold vertex of spike-containing virions, overall 7.2 Å

SH1 membrane-associated protein VP12 (natural protein)
stoichiometry N [1]: 5

SH1 penton protein VP9 (natural protein)
stoichiometry N [2]: 5
